Assay [1] addresses human CDH6 protein, full length, on cells (OVCAR3, PA-1) (human) (UniProt P55285). The assay can be described thus: FACS, PA-1 cells. A general note: Flow cytometry measures light scatter and fluorescence of single cells or particles in a stream.
The target is the same in assay [2]. As to the kind of experiment: FACS, OVCAR3 cells.
The target of assay [3] is his-tagged human CDH6 extracellular region protein (hCDH6 ECD-his) (human) (UniProt P55285). The assay can be described thus: ELISA, antigen coated. For orientation: An ELISA detects its analyte on a solid surface through an enzyme-linked reagent.
Assay [4] deals with monkey CDH6 protein (cynoCDH6 ECD-his) (monkey (cyno)). As to the kind of experiment: ELISA, antigen coated.
The target in assay [5] is murine CDH6 protein (mCDH6 ECD-his) (mouse) (UniProt P97326). As to the kind of experiment: ELISA, antigen coated.
The target of assay [6] is human CDH6 with EC1 removed, on HEK293T cells (HEK293T-hCDH6-EC1 deletion) (human) (UniProt P55285). The assay can be described thus: FACS, HEK293T-hCDH6-EC1 deletion cells.
The target of assay [7] is human CDH6 with EC2 removed, on HEK293T cells (HEK293T-hCDH6-EC2 deletion) (human) (UniProt P55285). As to the kind of experiment: FACS, HEK293T-hCDH6-EC2 deletion cells.
The target in assay [8] is human CDH6 with EC3 removed, on HEK293T cells (HEK293T-hCDH6-EC3 deletion) (human) (UniProt P55285). The assay can be described thus: FACS, HEK293T-hCDH6-EC3 deletion cells.
Assay [9] deals with human CDH6 with EC4 removed, on HEK293T cells (HEK293T-hCDH6-EC4 deletion) (human) (UniProt P55285). The assay can be described thus: FACS, HEK293T-hCDH6-EC4 deletion cells.
Assay [10] concerns the target human CDH6 with EC5 removed, on HEK293T cells (HEK293T-hCDH6-EC5 deletion) (human) (UniProt P55285). As to the kind of experiment: FACS, HEK293T-hCDH6-EC5 deletion cells.
Assay [11] concerns the target T1, his-tagged human CDH6 extracellular region protein (hCDH6 ECD-his) (human, UniProt P55285 54-615).
T1 construct: also called hCDH6-his; Human CDH6-his; not shown: his tag
T1 sequence: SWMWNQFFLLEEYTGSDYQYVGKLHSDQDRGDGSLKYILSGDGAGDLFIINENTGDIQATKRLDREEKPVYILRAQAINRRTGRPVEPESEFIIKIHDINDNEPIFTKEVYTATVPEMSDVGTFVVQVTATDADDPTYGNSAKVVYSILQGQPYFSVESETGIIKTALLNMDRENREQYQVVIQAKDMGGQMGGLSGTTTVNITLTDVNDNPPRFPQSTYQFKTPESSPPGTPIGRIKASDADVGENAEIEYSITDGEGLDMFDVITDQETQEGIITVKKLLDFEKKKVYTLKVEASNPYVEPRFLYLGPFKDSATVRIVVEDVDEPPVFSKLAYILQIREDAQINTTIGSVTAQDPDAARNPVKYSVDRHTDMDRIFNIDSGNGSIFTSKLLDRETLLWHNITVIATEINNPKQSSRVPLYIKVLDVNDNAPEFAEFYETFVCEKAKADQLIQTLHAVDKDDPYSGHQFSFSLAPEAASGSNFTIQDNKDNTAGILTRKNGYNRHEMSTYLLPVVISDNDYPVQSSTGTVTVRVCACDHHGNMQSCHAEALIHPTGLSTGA
The assay can be described thus: SPR Biacore, antibody captured on Protein A chip. (In general: SPR reads the build-up and loss of mass on a sensor chip optically.)

The term EC50 denotes the concentration needed to bring the measured effect to its halfway point. The kon is the rate constant with which the complex forms.

Consider hIgG1 (antibody), for which the results for the Max MFI in assay [1] and in [2] were 64 MFI and 63 MFI, respectively. Further, the Max OD450 came to 0.07 OD450 in assay [3], 0.06 OD450 in [4] and 0.1 OD450 in [5].

B1: CHI-CDH6-5 (antibody, human IgG1, kappa, V domains shown)
VH: QVQLQQSGAELVRPGTSVKMSCKAAEYTFTNYWIGWVKQRPGHGLEWIGDLYPGGDHANYNEKFEGKATLTADTSSSTAYMQLSSLTSEDSAIYYCARGMLTTGFDSWGQGTTLTVSS
VL: DIVMSQSPSSLAVSAGEKVTMSCKSSQSLFNSRTRKNYLAWYQQKPGQSPKLLIYWASTRESGVPDRFTGSGSGTDFTLTISSVQAEDLAVYYCKQSYYLRTFGGGTKLEIKR
The molecule B1 displayed an EC50 in [5] of 0.046 nM. In [5], this molecule returned a Max OD450 of 1.92 OD450. Further, the Max MFI is 112 MFI in assay [6]; 343 MFI in [7]; 12200 MFI in assay [8]; 18700 MFI in assay [9]; 4240 MFI in [10].

B2: CHI-CDH6-9 (antibody, human IgG1, kappa, V domains shown)
VH: QVQLQQPGAELVKPGASVKLSCKASGYTFTGYWMHWVRQRPGQGLEWIGEINPNNGGTNCNEQFKNKATLTVDKSSSTAYMQLSSLTSEDSAVFYCTISFGNYLFFDVWGAGTTVTVSS
VL: DIQMTQSPASLAASVGETITITCQASENIYFSLAWYQQKQGKSPQLLIYNANTLEDGVPSRFVGSGSGTQYSMKINSIQPEDTATYFCDQTYDFPWTFGGGTKLEIKR
On to B2, for which, in assay [5], the EC50 was determined as 0.022 nM and the Max OD450 stood at 2.77 OD450.

B3: CHI-CDH6-4 (antibody, human IgG1, kappa, V domains shown)
VH: QVQLQQSGPELVKPGASVKISCKASGYAFSNFWMNWVKQRPGKGLEWIGWIYPGDGDTNYNGKFKDKATLTADKSSSTAYIQLSSLTSEDSAVYFCARLYDAWGFFDYWGQGTTLTVSS
VL: QIVLTQSPAIMSASPGQKVTITCSASSSVNYMHWYQQKLGSSPKLWIYDKSKLAPGVPARFSGSGSGTSYSLTISSMEAEDAASYFCHQWSSYPPMTFGGGTKLEIKR
In [5], B3 gave an EC50 of 0.035 nM. The molecule also registered a Max OD450 in assay [5] of 2.32 OD450. For the same molecule, the Max MFI in assay [6] is 10200 MFI; in assay [7] it was 75 MFI; in [8], 15100 MFI; in assay [9], 22200 MFI; in assay [10] it was 6540 MFI.

B4: NOV0712 (antibody, human IgG1, kappa, V domains shown)
VH: QVQLLESGGGLVQPGGSLRLSCAASGFTFSSHGMHWVRQAPGKGLEWVSVISGSGSNTGYADSVKGRFTISRDNSKNTLYLQMNSLRAEDTAVYYCARQWGSYAFDSWGQGTLVTVSS
VL: DIQMTQSPSSLSASVGDRVTITCRASQSISSYLNWYQQKPGKAPKLLIYAVSTLQSGVPSRFSGSGSGTDFTLTISSLQPEDFATYYCQQSGTFPPTTFGQGTKVEIKR
B4 came in with an EC50 in assay [5] of 0.039 nM. In addition, the Max OD450 in [5] is 2.42 OD450. For the same molecule, the Max MFI in assay [6] was found to be 23600 MFI; in [7], 39100 MFI; in assay [8] it was 16300 MFI; in assay [9], 20600 MFI.

B5: CHI-CDH6-6 (antibody, human IgG1, kappa, V domains shown)
VH: EVQLQQSGPELVKPGDSVKMSCKASGYTFTDYYMAWVRQSHRKSLEWIGYIFPNSGGTDYSQKFKGKATLTVDKSSSTVYMELHSLTSEDSAVYYCARELGADYGDYYAMDHWGQGTSVSVSS
VL: DIQMTQSPASLSASVGETVTITCRASENIDSYLAWYQQKQGKSPQLLVYSATLLADGVPSRFSGSGSGTQYSLKINSLKSEDVARYYCQHYYRTPPTFGSGTKLEIKR
B5: in assay [5], the EC50 is 0.025 nM and the Max OD450 is 1.6 OD450.

B6: CHI-CDH6-7 (antibody, human IgG1, kappa, V domains shown)
VH: EVKLVESGGGLVKPGGSLKVSCAASGFTFSDHGMAWVRQAPGKGPEWVAFISNLAYSIYYADTVTGRFTISRENAKNTLYLEMSSLRSEDTAMYYCARVYVKWYFDVWGAGTTVTVSS
VL: DIQMTQSPASLSASVGETVTITCRASENIDSYLAWYQQKQGKSPQLLVFAATLLADGVPSRFSGSGSGTQYSLKINSLQSEDVARYYCQHYYSTPLTFGAGTKLELKR
In turn, B6 came in with an EC50 in [5] of 0.058 nM. In addition, the Max OD450 in assay [5] stood at 2.12 OD450. Besides, the Max MFI in assay [6] was 88 MFI; in [7] it was 13000 MFI; in [8] it was 9060 MFI; in [9] it was 17400 MFI; in assay [10], 1020 MFI.

B7: CHI-CDH6-8 (antibody, human IgG1, kappa, V domains shown)
VH: EVQLQQSGPELVKPGDSVKMSCKASGYTFTDYYMAWIKQNHGKSLEWIGYIYPNNGGTDYNQKFRGKATLTVDKSSSAAYMELHSLTSEDSAVYYCAREIGTLYGDYYAMDYWGQGTSVTVSS
VL: DIQMTQSPASLSASVGETVTITCRASENIDSYLAWYQQKQGKSPQLLVYTATLLADGVPSRFSGSGSGTQYSLKINSLQSEDVARYYCQHYYSTPPTFGSGTKLEIKR
In assay [5], B7 had an EC50 of 0.028 nM and a Max OD450 of 1.82 OD450.

B8: DS-H01L02 (antibody, human IgG1, kappa, V domains shown)
VH: EVQLVQSGAEVKKPGASVKVSCKASGYTFTRNFMHWVRQAPGQGLEWMGWIYPGDGETEYAQKFQGRVTITADTSTSTAYMELSSLRSEDTAVYYCARGVYGGFAGGYFDFWGQGTLVTVSS
VL: DIQMTQSPSSLSASVGDRVTITCKASQNIYKNLAWYQQKPGKAPKLLIYDANTLQTGVPSRFSGSGSGSDFTLTISSLQPEDFATYFCQQYYSGWAFGQGTKVEIKR
In assay [5], B8 registered a Max OD450 of 0.6 OD450. Besides, the Max MFI was 5290 MFI in [6], 8390 MFI in assay [7], 11800 MFI in [9] and 1530 MFI in assay [10].

B9: CHI-CDH6-3 (antibody, human IgG1, kappa, V domains shown)
VH: QVQLQQPGAELVKPGASVKLSCKASGYTFTSYWIHWVKQRPGQGLEWIGEINPSNGVTNCNENFKSKATLTVDKSSSTAYMQLSSLTSEDSAVYYCTIPNLLWWYFDVWGAGTTVTVSS
VL: DIQMTQSPASLSVSVGETVTITCRASENIYSNLAWYQQKQGKSPQLLVYEATNLADGVPSRFSGSGSGTQYSLKINSLQSEDFGSYYCQHFWGTLWTFGGGTKLEIKR
The molecule B9 came in with an EC50 in assay [5] of 0.051 nM. This molecule also registered a Max OD450 in assay [5] of 2.38 OD450. In addition, the Max MFI in assay [6] is 11100 MFI; in [7], 7550 MFI; in assay [8], 689 MFI; in [9], 16800 MFI; in assay [10] it was 5610 MFI.

B10: hCDH6-1-H1L1 (antibody, human IgG1, kappa, V domains shown)
VH: EVQLVQSGAEVKKPGSSVKVSCKASGYTFSNYWMHWVRQAPGQGLEWMGDIDPSHSETHYTQKFKDRVTITVDKSTSTAYMELSSLRSEDTAVYYCARGDLGRFDYWGQGTTVTVSS
VL: DIVMTQSPDSLAVSLGERATINCRASESVSIHGTHLMHWYQQKPGQPPKLLIYAASNLESGVPDRFSGSGSETDFTLTISSLQAEDVAVYYCQQSFEDPWTFGGGTKVEIKR
In turn, B10 registered a kon in assay [11] of 2100 M⁻¹ s⁻¹.

B11: CHI-CDH6-11 (antibody, human IgG1, kappa, V domains shown)
VH: QIQLQQSGPELVKPGASVRISCKASGYTFTDYYITWVKLRPGQGLEWIGWIYPGSVNIKYNEKFKGKATLTVDTSSSTAYMQLNSLTSEDSAVYFCARGGYSWFPYWGQGTLVTVSA
VL: NIVMTQSPKSMSMSVGERVTLSCKASENVHTYVSWYQQKPEQSPKLLFYGASTRNTGVPDRFTGSGSATDFTLTISSVQAEDLADYYCGQSYSYPYTFGSGTKLEIKR
In assay [5], B11 returned an EC50 of 0.04 nM and a Max OD450 of 1.77 OD450.

B12: CHI-CDH6-2 (antibody, human IgG1, kappa, V domains shown)
VH: EVQLQQSGPELVKPGASVRISCKASGYTFTDYYMNWVKQSHGKSLEWIGDIDPNNANTTYNQKFKGKATLTVDKSSSTAYMELRSLTSEDSAVYSCASFGYDVEWFGYWGQGTLVTVSA
VL: QIVLTQSPALMSASPGEKVTMTCSASSSVSYMYWYQQKPRSSPKPWIYLTSNLASGVPARFSGSGSGTSYSLTISSMEAEDAATYYCQQWSSNPFTFGSGTKLEIKR
On to B12, for which, in assay [5], the EC50 is 0.023 nM and the Max OD450 came out at 1.62 OD450.

B13: CHI-CDH6-13 (antibody, human IgG1, kappa, V domains shown)
VH: DVQLQESGPGLVKPSQSLSLTCSVTGYSITKDSYWNWIRQFPGSKLEWMGFISYDGSRHYNPSLKNRISITRDTSKNQFFLQLNSVTTEDTATYYCARRDYADYWGQGTTLTVSS
VL: QIVLTQSPALMSAFPGEKVTMTCSATSSVSYIYWYQQKPRSSPKPWIYLTSNLASGVPARFSGSGSGTSYSLTINSLEAEDAATYYCQQWSSIPYTFGGGTKLEIKR
Consider B13, for which, in [5], the EC50 turned out to be 0.016 nM and the Max OD450 is 2.76 OD450.

Values taken from patent EP4663661A1 (Hainan Simcere Zaiming Pharmaceutical Co., Ltd., dated 2025).
